According to patent US20260242823:
Like-named read-outs stand apart in the source and are kept apart here.

B1: plasmin (protein)
chain: KVYLSECKTGNGKNYRGTMSKTKNGITCQKWSSTSPHRPRFSPATHPSEGLEENYCRNPDNDPQGPWCYTTDPEKRYDYCDILECEEECMHCSGENYDGKISKTMSGLECQAWDSQSPHAHGYIPSKFPNKNLKKNYCRNPDRELRPWCFTTDPNKRWELCDIPRCTTPPPSSGPTYQCLKGTGENYRGNVAVTVSGHTCQHWSAQTPHTHNRTPENFPCKNLDENYCRNPDGKRAPWCHTTNSQVRWEYCKIPSCDSSPVSTEQLAPTAPPELTPVVQDCYHGDGQSYRGTSSTTTTGKKCQSWSSMTPHRHQKTPENYPNAGLTMNYCRNPDADKGPWCFTTDPSVRWEYCNLKKCSGTEASVVAPPPVVLLPDVETPSEEDCMFGNGKGYRGKRATTVTGTPCQDWAAQEPHRHSIFTPETNPRAGLEKNYCRNPDGDVGGPWCYTTNPRKLYDYCDVPQCAAPSFDCGKPQVEPKKCPGRVVGGCVAHPHSWPWQVSLRTRFGMHFCGGTLISPEWVLTAAHCLEKSPRPSSYKVILGAHQEVNLEPHVQEIEVSRLFLEPTRKDIALLKLSSPAVITDKVIPACLPSPNYVVADRTECFITGWGETQGTFGAGLLKEAQLPVIENKVCNRYEFLNGRVQSTELCAGHLAGGTDSCQGDSGGPLVCFEKDKYILQGVTSWGLGCARPNKPGVYVRVSRFVTWIEGVMRNN

Key:
wild-type FVIII [1] = system: wild-type FVIII
Sequence of wild-type FVIII (chain, as listed by the source): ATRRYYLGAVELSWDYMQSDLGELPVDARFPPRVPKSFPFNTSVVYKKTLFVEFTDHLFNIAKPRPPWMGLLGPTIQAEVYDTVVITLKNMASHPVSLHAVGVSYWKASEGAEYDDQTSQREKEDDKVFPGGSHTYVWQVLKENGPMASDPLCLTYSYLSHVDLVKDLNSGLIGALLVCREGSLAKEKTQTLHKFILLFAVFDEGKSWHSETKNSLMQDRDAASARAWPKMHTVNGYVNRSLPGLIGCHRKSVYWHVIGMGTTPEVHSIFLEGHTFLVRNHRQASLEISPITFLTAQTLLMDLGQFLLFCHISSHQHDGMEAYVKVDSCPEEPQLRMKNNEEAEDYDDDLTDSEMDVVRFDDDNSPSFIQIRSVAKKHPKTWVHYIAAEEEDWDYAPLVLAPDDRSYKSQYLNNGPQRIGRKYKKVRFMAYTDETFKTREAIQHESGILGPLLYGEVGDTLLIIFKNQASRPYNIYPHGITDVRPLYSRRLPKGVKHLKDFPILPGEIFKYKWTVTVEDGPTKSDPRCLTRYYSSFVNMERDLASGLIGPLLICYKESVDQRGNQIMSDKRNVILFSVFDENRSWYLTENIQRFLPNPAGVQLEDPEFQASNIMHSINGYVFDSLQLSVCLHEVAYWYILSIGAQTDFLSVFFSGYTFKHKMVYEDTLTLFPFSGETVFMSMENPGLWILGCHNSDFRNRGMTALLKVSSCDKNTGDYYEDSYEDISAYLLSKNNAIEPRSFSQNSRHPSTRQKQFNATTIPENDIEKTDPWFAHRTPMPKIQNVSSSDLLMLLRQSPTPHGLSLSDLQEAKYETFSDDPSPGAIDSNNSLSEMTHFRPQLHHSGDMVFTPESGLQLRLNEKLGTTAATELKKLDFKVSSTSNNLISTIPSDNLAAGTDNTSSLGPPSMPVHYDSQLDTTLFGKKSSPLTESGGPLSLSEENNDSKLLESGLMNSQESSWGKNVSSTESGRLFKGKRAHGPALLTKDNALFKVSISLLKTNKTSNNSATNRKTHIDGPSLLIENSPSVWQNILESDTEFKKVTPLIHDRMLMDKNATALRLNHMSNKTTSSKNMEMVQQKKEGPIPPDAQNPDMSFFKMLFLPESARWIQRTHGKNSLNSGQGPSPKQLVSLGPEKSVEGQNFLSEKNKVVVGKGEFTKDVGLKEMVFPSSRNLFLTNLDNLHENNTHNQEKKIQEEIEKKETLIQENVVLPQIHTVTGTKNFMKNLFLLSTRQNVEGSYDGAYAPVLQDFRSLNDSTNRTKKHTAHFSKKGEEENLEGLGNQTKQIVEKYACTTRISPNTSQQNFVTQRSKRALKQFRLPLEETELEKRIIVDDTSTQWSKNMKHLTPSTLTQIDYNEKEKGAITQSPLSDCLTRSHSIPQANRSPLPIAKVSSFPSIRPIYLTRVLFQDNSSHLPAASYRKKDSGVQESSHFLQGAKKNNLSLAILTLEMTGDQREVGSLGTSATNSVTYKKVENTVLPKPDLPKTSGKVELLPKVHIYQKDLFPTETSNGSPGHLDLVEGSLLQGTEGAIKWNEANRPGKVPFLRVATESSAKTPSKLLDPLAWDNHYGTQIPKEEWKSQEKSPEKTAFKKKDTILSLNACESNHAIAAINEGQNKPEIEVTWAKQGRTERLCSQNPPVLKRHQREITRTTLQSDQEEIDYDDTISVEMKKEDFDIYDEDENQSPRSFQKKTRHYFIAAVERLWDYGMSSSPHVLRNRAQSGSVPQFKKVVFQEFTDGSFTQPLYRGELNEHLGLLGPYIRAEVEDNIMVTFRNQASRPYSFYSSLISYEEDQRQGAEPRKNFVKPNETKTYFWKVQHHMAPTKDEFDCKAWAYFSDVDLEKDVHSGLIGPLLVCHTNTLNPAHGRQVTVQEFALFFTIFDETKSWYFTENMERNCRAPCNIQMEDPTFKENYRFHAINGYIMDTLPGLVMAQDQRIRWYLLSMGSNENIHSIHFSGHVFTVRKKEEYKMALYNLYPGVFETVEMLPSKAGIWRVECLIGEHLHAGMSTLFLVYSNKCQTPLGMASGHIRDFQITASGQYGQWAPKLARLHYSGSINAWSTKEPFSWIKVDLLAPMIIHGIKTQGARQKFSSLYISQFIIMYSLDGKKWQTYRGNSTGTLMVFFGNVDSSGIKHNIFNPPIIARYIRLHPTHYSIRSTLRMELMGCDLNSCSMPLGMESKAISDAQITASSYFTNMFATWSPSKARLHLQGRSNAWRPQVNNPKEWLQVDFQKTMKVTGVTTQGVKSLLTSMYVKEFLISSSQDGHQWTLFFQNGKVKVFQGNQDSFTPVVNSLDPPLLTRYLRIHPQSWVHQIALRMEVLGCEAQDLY

FVIII-R336Q/R562Q [2] = system: FVIII-R336Q/R562Q
Sequence of FVIII-R336Q/R562Q (chain, as listed by the source R336Q R562Q): as the sequence (chain, as listed by the source) above, with R336Q, R562Q counted along it

wild-type FVIII [3] = target: wild-type FVIII; remark: listed apart in the source
FVIII-R336Q/R562Q [4] = target: FVIII-R336Q/R562Q; remark: listed apart in the source

Row | Molecule | Western Blot analysis of cleavage fragments (wild-type FVIII [1]) | Western Blot analysis of cleavage fragments (FVIII-R336Q/R562Q [2]) | Western blot cleavage at R372 (wild-type FVIII [1]) | Western Blot analysis of cleavage fragments (wild-type FVIII [3]) | Western Blot analysis of cleavage fragments (FVIII-R336Q/R562Q [4])
1 | FIXa | all serine proteases cleaved at R336 or R562 in FVIII-WT | no such cleavage fragments were seen with FVIII-QQ | – | – | –
2 | activated protein C | all serine proteases cleaved at R336 or R562 in FVIII-WT | no such cleavage fragments were seen with FVIII-QQ | – | – | –
3 | FXa | all serine proteases cleaved at R336 or R562 in FVIII-WT | no such cleavage fragments were seen with FVIII-QQ | – | – | –
4 | thrombin (IIa) | all serine proteases cleaved at R336 or R562 in FVIII-WT | no such cleavage fragments were seen with FVIII-QQ | thrombin (IIa) as well as multiple serine proteases can also cleave R372 of FVIII | – | –
5 | B1 | – | – | – | all serine proteases cleaved at R336 or R562 in FVIII-WT | no such cleavage fragments were seen with FVIII-QQ
